Test results: patent publication US20100190202A1, “NOVEL POPULATION OF HEPATOCYTES DERIVED VIA DEFINITIVE ENDODERM (DE-HEP) FROM HUMAN BLASTOCYSTS STEM CELLS” (Cellartis AB, priority 2007, published 2010)

B1: activin B: activin B, 100 ng/ml, substituted for activin A for induction of endoderm (protein, UniProt P09529 293-407, looked up)
Inhibin beta B chain: GLECDGRTNLCCRQQFFIDFRLIGWNDWIIAPTGYYGNYCEGSCPAYLAGVPGSASSFHTAVVNQYRMRGLNPGTVNSCCIPTKLSTMSMLYFDDEYNIVKRDVPNMIVEECGCA
modifications: Inhibin beta B chain
B2: Activin A: TGF-beta family member used at 100 ng/ml to induce definitive endoderm (protein, UniProt P08476 311-426, looked up)
Inhibin beta A chain: GLECDGKVNICCKKQFFVSFKDIGWNDWIIAPSGYHANYCEGECPSHIAGTSGSSLSFHSTVINHYRMRGHSPFANLKSCCVPTKLRPMSMLYYDDGQNIIKKDIQNMIVEECGCS
modifications: Inhibin beta A chain
notes: TGF-beta family member used at 100 ng/ml to induce definitive endoderm

Columns and labels:
hESC line SA002 = experiment: Real-time PCR after exposure to activin A or activin B; type: cell-based, human; settings: 100 ng/ml, 5 ng/ml bFGF, 5 days
Protocol: Undifferentiated hESC line SA002 were exposed to either activin A (100 ng/ml) or activin B (100 ng/ml) in the presence of 5 ng/ml bFGF for 5 days and analyzed for gene expression.
mRNA expression of Foxa2, Sox17, CXCR4, Sox7, CDX2, AAT was measured by real-time PCR using the ABI/TaqMan method. In short, RNA was isolated from the cell cultures by using Qiagen's RNeasy system. cDNA was synthesized by using the ABI high capacity cDNA synthesis kit. RT-PCR was performed in a ABI 7500 by using TaqMan probe. The expression level was normalized to CREBBP expression.

hBS cells = experiment: Sox17/Sox7 immunostaining of Activin A treated hBS cell cultures; type: cell-based, human; settings: after 4 days in Activin A; of the remaining cells
Text: We used Activin A, and Activin A in combination with Wnt3a and/or FGF2 to generate DE. After 4 to 5 days in Stage I the hBS cell colony differentiated and genetic markers for early DE were examined using quantitative real-time real time-PCR (Q-PCR). Activin A induced a strong wave of early endoderm at day 3 to 5, and was highlighted by high expression levels of Sox17, HNF3beta (HNF3b or HNF3b) and Cxcr4 expression (FIG. 4) and then reduced to near baseline levels (data not shown). […] Furthermore they up regulate early liver markers like AFP or AAT. At this early stage in differentiation and development, this indicates the presence of extraembryonic endoderm (ExE) in intrinsically differentiating colonies (FIGS. 5 and 10). The expression data were confirmed by co-staining of Sox17/Sox7, Sox17/Cxcr4, Sox17/Oct4, Sox7/HNF3b (data not shown). […] The changes of gene expression after Activin A treatment were associated to morphological changes and distinct differentiation pattern of the colonies (FIG. 2). After 4 to 5 days induction with Activin A containing medium cells gathered together and formed a ring of epithelial cells around the colony. […]
Activin A induces definitive endoderm detected by a combination of Sox17+/Sox7−, 80-90% of the total cells in a Activin A or Activin A/FGF2 treated culture are estimated to be Sox17 positive and negative for Sox7 (manual counting in microscope). […]

Molecule | mRNA expression of endodermal markers Foxa2, Sox17 and CXCR4 compared to activin A (hESC line SA002) | mRNA expression of extraembryonal markers Sox7, CDX2 and AAT compared to activin A (hESC line SA002) | Sox17 positive cells (hBS cells)
B1 | either the same or even higher | the same or lower | 
B2 |  |  | more than 70%
